The record followed here is the supplement of paper PMC10724198.

± gives the standard deviation of the averaged measurements.

The test system of the data set is Saccharomyces cerevisiae. Kind of data set: protein stability index of tFT-peptide fusion (C-terminal peptide) (PSI (0-1 scale)); higher = more stable (slower turnover). The note with it: temperature: 30 C. The method, then: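 MPS profiling in S. cerevisiae of the yeast C-terminome library: the last 12 aa of each annotated ORF are fused to the C-terminus of a sfGFP-mCherry timer, after a GGGS linker. Cells are FACS-sorted into 8 mCherry/sfGFP bins and deep-sequenced. PSI runs from 0 (unstable) to 1 (stable); wild type and das1Δ backgrounds, two technical replicates each.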

Setting [1] is: genetic background: das1 deletion.

IYIQTPINDFKS [SLM1 C-terminal 12 aa]: the protein stability index amounted to 0.705 ± 0.031 under setting [1] and 0.678 ± 0.013 (genetic background: wild type).

IYKEKYMKQGPK [DSF2 C-terminal 12 aa] showed a protein stability index under setting [1] of 0.701 ± 0.071 and a protein stability index (genetic background: wild type) of 0.701 ± 0.084.

In the case of IYYMEQMLGKTQ [HSK3 C-terminal 12 aa], the protein stability index runs as follows: under setting [1], 0.696 ± 0.038; (genetic background: wild type) 0.696 ± 0.024.

In the case of KALNEIFMITND [PXR1 C-terminal 12 aa], the protein stability index reads like this: under setting [1], 0.723 ± 0.013; (genetic background: wild type) 0.763 ± 0.033.

In the case of KAPKSPEVIEID [UFD1 C-terminal 12 aa], the protein stability index runs as follows: under setting [1], 0.6978 ± 0.0035; (genetic background: wild type) 0.684 ± 0.027.

With KARPFKCSDKKQ [MZM1 C-terminal 12 aa], the protein stability index was determined as 0.718 ± 0.016 under setting [1] and 0.72792 ± 0.00048 (genetic background: wild type).

As to KDEPVKAHNKLK [SAS5 C-terminal 12 aa], the protein stability index is 0.693 ± 0.011 under setting [1] and 0.654 ± 0.023 (genetic background: wild type).

KDETPEDNLEDK [VBA3 C-terminal 12 aa]: the protein stability index under setting [1] amounted to 0.6896 ± 0.00088 and the protein stability index (genetic background: wild type) was determined as 0.653 ± 0.017.

Sequence KDNNISSYGSII [YPL162C C-terminal 12 aa] yielded a protein stability index under setting [1] of 0.693 ± 0.037 and a protein stability index (genetic background: wild type) of 0.668 ± 0.011.

For the sequence KEANPIKITPQP [MDL2 C-terminal 12 aa], the protein stability index was 0.682 ± 0.009 under setting [1] and 0.708 ± 0.0083 (genetic background: wild type).

As for KELEPVPPVSKS [OMS1 C-terminal 12 aa], the protein stability index was found to be 0.7006 ± 0.007 under setting [1] and 0.671 ± 0.01 (genetic background: wild type).

In turn, KEMWITGKIVED [IML1 C-terminal 12 aa] came in with a protein stability index under setting [1] of 0.672 ± 0.021 and a protein stability index (genetic background: wild type) of 0.6639 ± 0.0055.

Turning to KGCYKLCKNLLE [KEI1 C-terminal 12 aa], the protein stability index by setting is: under setting [1], 0.686 ± 0.013; (genetic background: wild type) 0.696 ± 0.043.

Consider KGDGKFWSSKKD [OM45 C-terminal 12 aa], for which the protein stability index is, setting by setting: under setting [1], 0.709 ± 0.0022; (genetic background: wild type) 0.6744 ± 0.0029.

As to KGFQFGLGLAFL [SAM50 C-terminal 12 aa], the protein stability index reads like this: under setting [1], 0.736 ± 0.034; (genetic background: wild type) 0.69 ± 0.019.

As to KGHVHSPRHNND [YOR379C C-terminal 12 aa], the protein stability index came to 0.7103 ± 0.0065 under setting [1] and 0.713 ± 0.035 (genetic background: wild type).

For the sequence KGTCGCGESFMV [ISA1 C-terminal 12 aa], the protein stability index reads like this: under setting [1], 0.71 ± 0.0094; (genetic background: wild type) 0.69 ± 0.045.

As to KHIDYRHAPGNI [RRN10 C-terminal 12 aa], the protein stability index was determined as 0.6875 ± 0.0066 under setting [1] and 0.69587 ± 0.00057 (genetic background: wild type).

On to KHKNILSFNNNT [YDR543C C-terminal 12 aa], for which the protein stability index under setting [1] was determined as 0.687 ± 0.02 and the protein stability index (genetic background: wild type) amounted to 0.709 ± 0.041.

As for KHPRPFRQEHRC [YLR162W C-terminal 12 aa], the protein stability index was 0.6986 ± 0.0027 under setting [1] and 0.6577 ± 0.0057 (genetic background: wild type).

For the sequence KHQFLTKAKRFF [FET3 C-terminal 12 aa], the protein stability index was found to be 0.693 ± 0.0079 under setting [1] and 0.7186 ± 0.0014 (genetic background: wild type).

With KHVSGKILGFVY [RPS22A C-terminal 12 aa], the protein stability index under setting [1] stood at 0.631 ± 0.045 and the protein stability index (genetic background: wild type) stood at 0.63 ± 0.02.

KIPKTYSELSCL [DUN1 C-terminal 12 aa]: the protein stability index came out at 0.693 ± 0.042 under setting [1] and 0.669 ± 0.037 (genetic background: wild type).

As for KKLHEEYFGEDK [CRS1 C-terminal 12 aa], the protein stability index reads like this: under setting [1], 0.673 ± 0.031; (genetic background: wild type) 0.646 ± 0.032.

Turning to KKMEARGQSIWV [RPN9 C-terminal 12 aa], the protein stability index runs as follows: under setting [1], 0.713 ± 0.0075; (genetic background: wild type) 0.6728 ± 0.0014.

With KKNGYIYFYTRC [UBP14 C-terminal 12 aa], the protein stability index is, setting by setting: under setting [1], 0.69 ± 0.0087; (genetic background: wild type) 0.6625 ± 0.0026.

Regarding KKQKVVPLPTDI [SMM1 C-terminal 12 aa], the protein stability index under setting [1] worked out at 0.6919 ± 0.0007 and the protein stability index (genetic background: wild type) was found to be 0.654 ± 0.015.

Turning to KKSKPRANKLTI [ECM2 C-terminal 12 aa], the protein stability index under setting [1] came to 0.713 ± 0.02 and the protein stability index (genetic background: wild type) was determined as 0.696 ± 0.017.

With KKYKFKLKFIKN [RNY1 C-terminal 12 aa], the protein stability index reads like this: under setting [1], 0.7118 ± 0.006; (genetic background: wild type) 0.642 ± 0.02.

The sequence KLDLPNVFHKKG [CHS2 C-terminal 12 aa] came in with a protein stability index under setting [1] of 0.713 ± 0.027 and a protein stability index (genetic background: wild type) of 0.706 ± 0.037.

For the sequence KLMVEEINLDID [FZO1 C-terminal 12 aa], the protein stability index under setting [1] worked out at 0.7048 ± 0.0045 and the protein stability index (genetic background: wild type) was determined as 0.747 ± 0.092.

Turning to KLRNSNNTRAED [AVO2 C-terminal 12 aa], the protein stability index amounted to 0.67 ± 0.0067 under setting [1] and 0.672 ± 0.011 (genetic background: wild type).

With KLTSTVTLNLLY [YGR107W C-terminal 12 aa], the protein stability index under setting [1] was 0.692 ± 0.019 and the protein stability index (genetic background: wild type) is 0.697 ± 0.029.

Take KLYILKHLGSKQ [RRG9 C-terminal 12 aa]: the protein stability index reads like this: under setting [1], 0.681 ± 0.037; (genetic background: wild type) 0.685 ± 0.019.

In the case of KMVLSHMKEKKD [YGL140C C-terminal 12 aa], the protein stability index under setting [1] amounted to 0.688 ± 0.011 and the protein stability index (genetic background: wild type) turned out to be 0.682 ± 0.017.

With KNEDSEVEDDLI [CUS2 C-terminal 12 aa], the protein stability index is, setting by setting: under setting [1], 0.703 ± 0.042; (genetic background: wild type) 0.67 ± 0.0098.

As for KNGKVDPLKNFK [DBP9 C-terminal 12 aa], the protein stability index was 0.701 ± 0.015 under setting [1] and 0.684 ± 0.026 (genetic background: wild type).

KNSGEKLVAVLN [YCR102C C-terminal 12 aa]: the protein stability index was found to be 0.6723 ± 0.001 under setting [1] and 0.666 ± 0.025 (genetic background: wild type).

As for KPDVERVYKENT [FAA4 C-terminal 12 aa], the protein stability index reads like this: under setting [1], 0.701 ± 0.025; (genetic background: wild type) 0.665 ± 0.011.

KPEFVDIINSRN [TPI1 C-terminal 12 aa]: the protein stability index stood at 0.7145 ± 0.0052 under setting [1] and 0.691 ± 0.026 (genetic background: wild type).

Take KPLSKPAPDLDY [CWC25 C-terminal 12 aa]: the protein stability index reads like this: under setting [1], 0.66 ± 0.024; (genetic background: wild type) 0.676 ± 0.0075.

With KPRKKAKALPKT [RTT109 C-terminal 12 aa], the protein stability index is, setting by setting: under setting [1], 0.689 ± 0.032; (genetic background: wild type) 0.737 ± 0.014.

Turning to KPRWYRIWNFWC [GAP1 C-terminal 12 aa], the protein stability index by setting is: under setting [1], 0.803 ± 0.017; (genetic background: wild type) 0.419 ± 0.024.

KQIDVFNGPKRV [MIG2 C-terminal 12 aa] gave a protein stability index under setting [1] of 0.713 ± 0.0091 and a protein stability index (genetic background: wild type) of 0.7313 ± 0.0019.

As to KQNIPRKPNVDI [BNS1 C-terminal 12 aa], the protein stability index is, setting by setting: under setting [1], 0.6875 ± 0.0057; (genetic background: wild type) 0.677 ± 0.018.

As for KRDIVFAASLYL [SKI2 C-terminal 12 aa], the protein stability index by setting is: under setting [1], 0.6855 ± 0.0061; (genetic background: wild type) 0.739 ± 0.12.

On to KRDKLKKNCVIM [YGL082W C-terminal 12 aa], for which the protein stability index by setting is: under setting [1], 0.74 ± 0.016; (genetic background: wild type) 0.698 ± 0.034.

As for “KREKTMRNSMLP [YIR036W-A C-terminal 12 aa]”, the protein stability index worked out at 0.684 ± 0.0091 under setting [1] and 0.736 ± 0.076 (genetic background: wild type).

Turning to KRLTSRLNKKHK [SPN1 C-terminal 12 aa], the protein stability index reads like this: under setting [1], 0.6937 ± 0.0067; (genetic background: wild type) 0.69 ± 0.046.

On to KRSLTLPVGMKI [AIM44 C-terminal 12 aa], for which the protein stability index was 0.683 ± 0.026 under setting [1] and 0.658 ± 0.02 (genetic background: wild type).
